Results as given in patent US20180258175A1 (ABLEXIS, published 2018).

Key:
[1] = biological target: T1, human CD115 extracellular domain (Sino Biological 10161-H08H) (human, UniProt P07333 20-517); assay: ELISA, supernatant on huCD115
T1 construct: extracellular domain; bought recombinant protein; also called huCD115; hu-CD115

[2] = biological target: T1, human CD115 extracellular domain (Sino …); assay: SPR ProteOn, supernatant mAb captured on anti-mouse IgG, Hu CD115 analyte

Row | binding result [1] | Binder | other results
1 | binds | CCK-410A (antibody, V domains shown, AlivaMab chimeric IgG, human kappa LC) VH: EVQLVESGGGLVQPGRSLRLSCTASGFTFGDYAMSWFRQAPGKGLEWVGFIRSKAYGGTTEYAASVKGRFTISRDDTKSIAYLQMNSLKIEDTAVHYCTREGSFGALDIWGQGIMVTVSS VL: not shown | –
2 | binds | CCK-434A (antibody, V domains shown, AlivaMab chimeric IgG, human kappa LC) VH: EVQLVESGGGLVQPGGSLRLSCAASGFTFSSYDMHWVRQATGKGLEWVSAIGTAGDTYYPGSVKGRFTISRENAKNSLYLQMNSLRAGDTAVYYCARGHIVVVTAMDYWGQGTLVTVSS VL: not shown | –
3 | binds | CCL-324A (antibody, V domains shown, AlivaMab chimeric IgG, human lambda LC) VH: QVQLQESGPGLVKPSETLSLTCTVSGGSISSYYWSWIRQPPGKGLEWIGYVYYSGSTNYNPSLKSRVTTSVDTSKNQFSLKLRSVTAADTAVYYCARDRLGIAFDIWGQGTMVTVSS VL: SSELTQDPAVSVALGQTVRITCQGDSLRSYYASWYQQKPGQAPILVIYGKNNRPSGIPDRFSGSSSGNTASLTITGAQAEDEADYYCNSQDNSGNHLVVFGRGTKLTVL | –
4 | binds | CCL-201A (antibody, V domains shown, AlivaMab chimeric IgG, human lambda LC) VH: QVQLQESGPGLVKPSETLSLTCTVSGGSISSYYWIWIRQPPGKGLEWIGYFYYSGSTNYNPSLKSRVTISVGTSKNQFSLKLSSVTAADTAVYYCARSRLGSIFDYWGQGTLVTVSS VL: not shown | –
5 | binds | CCK-501A (antibody, V domains shown, AlivaMab chimeric IgG, human kappa LC) VH: EVQLVESGGGLVKPGGSLRLSCAASGFTFSNAWMNWVRQAPGKGLEWVGRINSKTDGGTTDYAAPVKGRFTISRDDSKTTLYLQMNSLKTEDTAVYYCTTDGVYPDVFDIWGQGTMVTVSS VL: not shown | –
6 | binds | CCL-311A (antibody, V domains shown, AlivaMab chimeric IgG, human lambda LC) VH: EVQLVQSGAEVKKPGESLKISCKGSGYSFTNYWIGWVRQMPGKGLEWMGIIYPGDSDTRYSPSFQGQVTISADISITTAYLQWSSLKASDTAMYYCARHRLGFFDYWGQGTLVTVSS VL: not shown | –
7 | binds | CCL-209A (antibody, V domains shown, AlivaMab chimeric IgG, human lambda LC) VH: QVQLQESGPGLVKPSETLSLTCTVSGGSISSFYWSWIRQSPGRGLEWIGYIFYSGSTKYNPSLMSRVTISADTSKNQFSLKLSSVTAADTAVYYCARGRLGNYFDYWGQGTLVTVSS VL: not shown | –
8 | binds | CCL-223A (antibody, V domains shown, AlivaMab chimeric IgG, human lambda LC) VH: QVQLQESGPGLVKPSETLSLTCTVSGGSISSYYWSWIRQPAGKGLEWIGRIYTSGSTNYNPSLKSRVSMSVDTSKNQFSLKLSSVTAADTAVYYCARERIIWFDPWGQGTLVTVSS VL: not shown | –
9 | binds | CCL-207A (antibody, V domains shown, AlivaMab chimeric IgG, human lambda LC) VH: QVQLQESGPGLVKPSETLSLTCTVSGGSISSYYWSWIRQPAGKGLEWIGRIYTSGTTNYNPSLKSRVTMSVDTSKNQFSLKLNSVTAADTAVYYCARERVIWFDPWGQGTLVTVSS VL: not shown | –
10 | binds | CCL-220A (antibody, V domains shown, AlivaMab chimeric IgG, human lambda LC) VH: QVQLQESGPGLVKPSETLSLTCTVSGGSISSYYWSWIRQPAGKGLEGIGRIYTSGSTNYNPSLKSRVTMSVDTSKNQFSLKLSSVTAADTAVYYCARERLYGMDVWGQGTTVTVSS VL: not shown | –
11 | binds | CCK-408A (antibody, V domains shown, AlivaMab chimeric IgG, human kappa LC) VH: QVQLQESGPGLVKPSETLSLTCTVSGGSISSYYWSWIRQPAGKGLEWIGRIYTSGSTNYHPSFKSRVTMSVDTSKTQFSLKLSSLTAADTAVYYCARGGITWFDPWGQGTLVTVSS VL: not shown | –
12 | – | CCL-331A (antibody, V domains shown, AlivaMab chimeric IgG, human lambda LC) VH: QVQLQESGPGLVKPSETLSLTCTVSGGSISSYYWSWIRQPAGKGLEWIGRIYTSGSTNYNPSLKSRVTMSVDTSKNQFSLKLSSVTAADTAVYYCAREGLRGFDPWGQGTLVTVSS VL: not shown | Kd [2]: 118 pM; koff [2]: 2.2e-05 s⁻¹; kon [2]: 186000 M⁻¹ s⁻¹
13 | binds | CCL-315A (antibody, V domains shown, AlivaMab chimeric IgG, human lambda LC) VH: QVQLQESGPGLVKPSETLSLTCTVSGGSISSYYWSWIRQSPGKGLEWIGYIYYSGSTNYNPSLKSRVTISVDTSKNQFSLKLSSVTAADTAVYFCARALLTGGFAYWGQGTLVTVSS VL: not shown | –
14 | binds | CCL-338A (antibody, V domains shown, AlivaMab chimeric IgG, human lambda LC) VH: QVQLQESGPGLVKPSETLSLTCTVSGGSISSYYWSWIRQPPGKGLEWIGYIYYSGTTNYNPSLKSRVTISVDTSKNQFSLKLSSVTAADTAVYYCARALIVGAFAYWGQGTLVTVSS VL: SYELTQPHSVSVATAQMARITCGGNNIGSKAVHWYQQKPGQDPVLVIYSDSNRPSGIPERFSGSNPGNTATLTISRIEAGDEADYYCQVWDSSSDHRVFGGGTKLTVL | –
15 | – | CCL-206A (antibody, V domains shown, AlivaMab chimeric IgG, human lambda LC) VH: QVQLQESGPGLVKPSETLSLTCTVSGGSISSYYWTWIRQPPGKGLEWIGYIYYSGITNYNPSLKSRVTMSMDTSKNQFSLRLSSVTAADTAVYYCARGRIIGAFDIWGQGTMVTVSS VL: not shown | Kd [2]: 495 pM; koff [2]: 2.92e-05 s⁻¹; kon [2]: 59000 M⁻¹ s⁻¹
16 | binds | CCL-349A (antibody, V domains shown, AlivaMab chimeric IgG, human lambda LC) VH: QVQLQESGPGLVKPSETLSLTCTVSGGSISIYYWNWIRQPPGKGLEWIGYIYYIGSTNYNPSLKSRVTISVDTSKNQFSLKLSSVTAADTAVYYCARGRLTYAFDIWGQGTMVTVSS VL: not shown | –

Row | binding result [1] | Binder | other results
17 | binds | CCL-203A (antibody, V domains shown, AlivaMab chimeric IgG, human lambda LC) VH: QVQLQESGPGLVKPSETLSLTCTVSGGSISSYYWNWIRQPPGKGLEWIGYIYYSGSTNYNPSLKSRVTISLDTSKNQFSLKLSSVTAADTAVYHCARGRLNGAFDYWGQGTLVTVSS VL: not shown | –
18 | binds | CCL-253A (antibody, V domains shown, AlivaMab chimeric IgG, human lambda LC) VH: QVQLQESGPGLVKPSETLSLTCTVSGGSISSYYWSWIRQPAGKGLEWIGRIYTSGSTNYNPSLKSRVTMSVDTSKNQFSLKLSSMTAADTAVYYCARDRLGRAFDIWGQGTMVTVSS VL: not shown | –
19 | binds | CCL-320A (antibody, V domains shown, AlivaMab chimeric IgG, human lambda LC) VH: QVQLQESGPGLVKPSETLSLTCTVSVGSISSYYWSWIRQPAGKGLEWIGRIYASGSTNYNPSLKSRVTMSVDTSKNQFSLKLTSVTAADTAVYYCARERVGIYFDYWGQGTLVTVSS VL: not shown | –
20 | binds | CCL-303A (antibody, V domains shown, AlivaMab chimeric IgG, human lambda LC) VH: QVQLQESGPGLVKPSETLSLTCTVSGGSISSYYWSWIRQPPGKGLEWIGYIYYSGSTNYNPSLKSRVTISVDTSKNQFSLKLSSVTAADTAVFYCARITVTSAFDIWGQGTMVTVSS VL: not shown | –
21 | binds | CCL-341A (antibody, V domains shown, AlivaMab chimeric IgG, human lambda LC) VH: QVQLQESGPGLVKPSETLSLTCTVSGGSISSYYWSWIRQPAGKGLEWIGRIYTSGSTNYNPSLKSRVTMSVDTSKNQFSLKLSSVTAADTAVYYCARERLGMFFDYWGQGTLVTVSS VL: not shown | –
22 | – | CCL-249A (antibody, V domains shown, AlivaMab chimeric IgG, human lambda LC) VH: QVQLQESGPGLVKPSETLSLTCTVSGGSISSYYWSWIRQPAGKGLEWVGRLFTSGSTNYNPSLKSRVTMSVDTSKNQFSLKLSSVIAADTAVYYCARERLTGYFDYWGQGTLVTVSS VL: not shown | Kd [2]: 599 pM; koff [2]: 8.91e-05 s⁻¹; kon [2]: 149000 M⁻¹ s⁻¹
23 | binds | CCL-322A (antibody, V domains shown, AlivaMab chimeric IgG, human lambda LC) VH: QVQLQESGPGLVKPSETLSLTCTVSGGSISSYYWSWIRQPAGKGLEWIGRIYTSGSIKYNPSLKSRVAMSVDTSKNQFSLKLSSVTAADTAVYYCAREGILGYFDYWGQGTLVTVSS VL: not shown | –
24 | binds | CCL-301A (antibody, V domains shown, AlivaMab chimeric IgG, human lambda LC) VH: QVQLQESGPGLVKPSETLSLTCTVSGGSISSYYWSWIRQPAGKGLEWIGRIYTSGYTNYNPSLKSRVSMSVDTSKNQFSLKLSSVTAADTAVYYCARERLGAFFDYWGQGTLVTVSS VL: not shown | –
25 | binds | CCL-339A (antibody, V domains shown, AlivaMab chimeric IgG, human lambda LC) VH: QVQLQESGPGLVKPSETLSLTCTVSGGSISSNYWSWIRQPAGKGLEWIGRIYTSGSTKYNPSLKSRVTMSVDTSKNQFSLKLSSVTAADTAVYYCAREGIVGAFHYWGQGALVTVSS VL: not shown | –
26 | binds | CCL-344A (antibody, V domains shown, AlivaMab chimeric IgG, human lambda LC) VH: QVQLQESGPGLVKPSETLSLTCTVSGGSISSYYWSWIRQPAGKGLEWIGRIYTSGSTNYNPSLKSRVTMSVDTSKNQFSLKLSSVTAADTAVYYCARERLGMFFDYWGQGTLVTVSS VL: not shown | –
27 | binds | CCL-235A (antibody, V domains shown, AlivaMab chimeric IgG, human lambda LC) VH: QVQLQESGPGLVKPSETLSLTCTVSGGSISSYYWSWIWQPAGKGLEWIGRIYTSGSTNYNPSLKSRVTMSVDTPKNQFSLKLSSVTAADTAVYYCARERLTGAFDIWGQGTMVTVSS VL: not shown | –
28 | binds | CCL-314A (antibody, V domains shown, AlivaMab chimeric IgG, human lambda LC) VH: QVQLQESGPGLVKPSETLSLTCTVSGGSISSYYWSWIRQPAGKGLEWIGRIYASGGTNYNPSLKSRVTMSVDTSKNQFSLKVSSVIAADTAIYYCARNRLGIYDYWGQGSLVTVSS VL: not shown | –
29 | binds | CCL-226A (antibody, V domains shown, AlivaMab chimeric IgG, human lambda LC) VH: QVQLQESGPGLVKPSETLSLTCTVSGASISSYYWSWIRQPPGKGLEWIGYFYYSGSTNYSPSLKSRVTFSVDTSKNQFSLKLSSVTAADTAVYFCARGKVGVPFDYWGQGTLVTVSS VL: not shown | –
30 | binds | CCL-333A (antibody, V domains shown, AlivaMab chimeric IgG, human lambda LC) VH: EVQLVESGGGLVKPGGSLRLSCAASGFTFSYYSMNWVRQAPGKGLEWVSSISDSSDYIYYADSVKGRFTISRDNAKNSLYLQMNSLRAEDTAVYYCARGGLRFDYWGQGTLVTVSS VL: not shown | –
31 | binds | CCL-208A (antibody, V domains shown, AlivaMab chimeric IgG, human lambda LC) VH: QVQLVQSGAEVKKPGASVKVSCKASGYTFTDYYMHWVRQAPGQGLEWMGWINPNSGGANYAQKFQGRVTMTRDTSISIAYMELSRLRSDDTAIYYCARGRLTFFDYWGQGTLVTVSS VL: not shown | –
